# Molecular target: human Fc (human)
# Test: ELISA, negative control
row,Binder,optical density [OD]
1,"371_B10 (antibody, V domains shown) VH: EVQLLESGGGLVQPGGSLRLSCAASGFTFDSYSMNWVRQAPGKGLEWVSNINYNGGYTGYADSVKGRFTISRDNSKNTLYLQMNSLRAEDTAVYYCARSATWHDTHLDYWGQGTLVTVSS VL: DIQMTQSPSSLSASVGDRVTITCRASQSIVSYVNWYQQKPGKAPKLLIYAATSRASGVPSRFSGSGSGTDFTLTISSLQPEDFATYYCQQSYDLPLTFGGGTKVEIK",0.387
2,"374_A08 (antibody, V domains shown) VH: EVQLLESGGGLVQPGGSLRLSCAASGFTFDSYSMNWVRQAPGKGLEWVSNINYNSGYTSYADSVKGRFTISRDNSKNTLYLQMNSLRAEDTAVYYCARSATWHDTHLDYWGQGTLVTVSS VL: DIQMTQSPSSLSASVGDRVTITCRASQSIVTYLNWYQQKPGKAPKLLIYAATSLASGVPSRFSGSGSGTDFTLTISSLQPEDFATYYCQQSYDLPLTFGGGTKVEIK",0.16
3,"367_G03 (antibody, V domains shown) VH: EVQLLESGGGLVQPGGSLRLSCAASGFTFDSYSMHWVRQAPGKGLEWVANINYNGGYTSYADSVKGRFTISRDNSKNTLYLQMNSLRAEDTAVYYCARAATWHDTHLDYWGQGTLVTVSS VL: DIQMTQSPSSLSASVGDRVTITCRASQSIVSYVNWYQQKPGKAPKLVIYAATSRHSGVPSRFSGSGSGTDFTLTISSLQPEDFATYYCQQSYDLPLTFGGGTKVEIK",0.341
4,"365_D06 (antibody, V domains shown) VH: EVQLLESGGGLVQPGGSLRLSCAASGFTFDSYSMNWVRQAPGKGLEWVSNINYNGGYTSYADSVKGRFTISRDNSKNTLYLQMNSLRAEDTAVYYCARSATWHDTHLDYWGQGTLVTVSS VL: DIQMTQSPSSLSASVGDRVTITCRASQSILTYVNWYQQKPGKAPKLLIYAATSRASGVPSRFSGSGSGTDFTLTISSLQPEDFATYYCQQSYSLPLTFGGGTKVEIK",0.319
5,"365_A02 (antibody, V domains shown) VH: EVQLLESGGGLVQPGGSLRLSCAASGFTFDSYSMNWVRQAPGKGLEWVSNINYNGGYTSYADSVKGRFTISRDNSKNTLYLQMNSLRAEDTAVYYCARSATWHDTHLDYWGQGTLVTVSS VL: DIQMTQSPSSLSASVGDRVTITCRASQSILTYVNWYQQKPGKAPKLLIYAATSRASGVPSRFSGSGSGTDFTLTISSLQPEDFATYYCQQSYNSPLTFGGGTKVEIK",0.374
6,"373_D02 (antibody, V domains shown) VH: EVQLLESGGGLVQPGGSLRLSCAASGFTFSSYSMNWVRQAPGKGLEWVSNINYNSGYKGYADSVKGRFTISRDNSKNTLYLQMNSLRAEDTAVYYCARSATWHDTHLDYWGQGTLVTVSS VL: DIQMTQSPSSLSASVGDRVTITCRASQSILSYLNWYQQKPGKAPKLLIYAATSLASGVPSRFSGSGSGTDFTLTISSLQPEDFATYYCQQSYDLPLTFGGGTKVEIK",0.18
7,"374_D11 (antibody, V domains shown) VH: EVQLLESGGGLVQPGGSLRLSCAASGFTFDSYGMNWVRQAPGKGLEWVSNINYNSGYTGYADSVKGRFTISRDNSKNTLYLQMNSLRAEDTAVYYCARSATWHDTHLDYWGQGTLVTVSS VL: DIQMTQSPSSLSASVGDRVTITCRASQSILTYLNWYQQKPGKAPKLLIYAATSRASGVPSRFSGSGSGTDFTLTISSLQPEDFATYYCQQSYETPLTFGGGTKVEIK",0.162
8,"365_E04 (antibody, V domains shown) VH: EVQLLESGGGLVQPGGSLRLSCAASGFTFDSYGMHWVRQAPGKGLEWVASINYNGGYKSYADSVKGRFTISRDNSKNTLYLQMNSLRAEDTAVYYCARAANWHDTALDYWGQGTLVTVSS VL: DIQMTQSPSSLSASVGDRVTITCRASQSILSYVNWYQQKPGKAPKLLIYAATSLASGVPSRFSGSGSGTDFTLTISSLQPEDFATYYCQQSYELPLTFGGGTKVEIK",0.46
9,"374_G12 (antibody, V domains shown) VH: EVQLLESGGGLVQPGGSLRLSCAASGFTFDDYGMNWVRQAPGKGLEWVSSINYNGGYKSYADSVKGRFTISRDNSKNTLYLQMNSLRAEDTAVYYCARSATWHDTHLDYWGQGTLVTVSS VL: DIQMTQSPSSLSASVGDRVTITCRASQSILTYVNWYQQKPGKAPKLVIYAATSLASGVPSRFSGSGSGTDFTLTISSLQPEDFATYYCQQSYNSPLTFGGGTKVEIK",0.214
10,"374_A03 (antibody, V domains shown) VH: EVQLLESGGGLVQPGGSLRLSCAASGFTFDSYSMNWVRQAPGKGLEWVSNINYNGGYTSYADSVKGRFTISRDNSKNTLYLQMNSLRAEDTAVYYCARSATWHDTHLDYWGQGTLVTVSS VL: DIQMTQSPSSLSASVGDRVTITCRASQSILTYLNWYQQKPGKAPKLLIYAATSRASGVPSRFSGSGSGTDFTLTISSLQPEDFATYYCQQSYDNPLTFGGGTKVEIK",0.178
11,"374_G01 (antibody, V domains shown) VH: EVQLLESGGGLVQPGGSLRLSCAASGFTFDSYSMNWVRQAPGKGLEWVSNINYNSGYTSYADSVKGRFTISRDNSKNTLYLQMNSLRAEDTAVYYCARSATWHDTHLDYWGQGTLVTVSS VL: DIQMTQSPSSLSASVGDRVTITCRASQSILTYVNWYQQKPGKAPKLLIYATTSRHSGVPSRFSGSGSGTDFTLTISSLQPEDFATYYCQQSYNLPLTFGGGTKVEIK",0.161

# More lines, now with the values ahead:
row,optical density [OD],Binder
1,0.176,"374_E03 (antibody, V domains shown) VH: EVQLLESGGGLVQPGGSLRLSCAASGFTFSSYSMNWVRQAPGKGLEWVSNINYNSGYKGYADSVKGRFTISRDNSKNTLYLQMNSLRAEDTAVYYCARSATWHDTHLDYWGQGTLVTVSS VL: DIQMTQSPSSLSASVGDRVTITCRASQSILTYVNWYQQKPGKAPKLVIYAATSLASGVPSRFSGSGSGTDFTLTISSLQPEDFATYYCQQSYDTPLTFGGGTKVEIK"
2,0.321,"367_D02 (antibody, V domains shown) VH: EVQLLESGGGLVQPGGSLRLSCAASGFTFDDYSMNWVRQAPGKGLEWVSNINYNGGYTSYADSVKGRFTISRDNSKNTLYLQMNSLRAEDTAVYYCARSATWHDTHLDYWGQGTLVTVSS VL: DIQMTQSPSSLSASVGDRVTITCRASQSIVTYVNWYQQKPGKAPKLLIYAATSRASGVPSRFSGSGSGTDFTLTISSLQPEDFATYYCQQSYENPLTFGGGTKVEIK"
3,0.177,"373_A07 (antibody, V domains shown) VH: EVQLLESGGGLVQPGGSLRLSCAASGFTFSSYSMNWVRQAPGKGLEWVSNINYNGGYTGYADSVKGRFTISRDNSKNTLYLQMNSLRAEDTAVYYCARSATWHDTHLDYWGQGTLVTVSS VL: DIQMTQSPSSLSASVGDRVTITCRASQSILTYVNWYQQKPGKAPKLLIYAATSRASGVPSRFSGSGSGTDFTLTISSLQPEDFATYYCQQSDNLPLTFGGGTKVEIK"
4,0.301,"366_C07 (antibody, V domains shown) VH: EVQLLESGGGLVQPGGSLRLSCAASGFTFSSYSMNWVRQAPGKGLEWVSNINYNGGYTSYADSVKGRFTISRDNSKNTLYLQMNSLRAEDTAVYYCARSATWHDTHLDYWGQGTLVTVSS VL: DIQMTQSPSSLSASVGDRVTITCRASQSILTYVNWYQQKPGKAPKLLIYAATSRASGVPSRFSGSGSGTDFTLTISSLQPEDFATYYCQQSYNSPLTFGGGTKVEIK"
5,0.395,"369_G09 (antibody, V domains shown) VH: EVQLLESGGGLVQPGGSLRLSCAASGFTFDSYSMNWVRQAPGKGLEWVSNINYNGGYTGYADSVKGRFTISRDNSKNTLYLQMNSLRAEDTAVYYCARSATWHDTHLDYWGQGTLVTVSS VL: DIQMTQSPSSLSASVGDRVTITCRASQSIVTYLNWYQQKPGKAPKLLIYAATSRASGVPSRFSGSGSGTDFTLTISSLQPEDFATYYCQQSYDLPLTFGGGTKVEIK"
6,0.278,"369_E09 (antibody, V domains shown) VH: EVQLLESGGGLVQPGGSLRLSCAASGFTFDSYSMNWVRQAPGKGLEWVSNINYNSGYKGYADSVKGRFTISRDNSKNTLYLQMNSLRAEDTAVYYCARSATWHDTHLDYWGQGTLVTVSS VL: DIQMTQSPSSLSASVGDRVTITCRASQSILSYLNWYQQKPGKAPKLVIYAATSRASGVPSRFSGSGSGTDFTLTISSLQPEDFATYYCQQSYDLPLTFGGGTKVEIK"
7,0.325,"365_G02 (antibody, V domains shown) VH: EVQLLESGGGLVQPGGSLRLSCAASGFTFSDYSMNWVRQAPGKGLEWVSNINYNSGYKGYADSVKGRFTISRDNSKNTLYLQMNSLRAEDTAVYYCARSATWHDTHLDYWGQGTLVTVSS VL: DIQMTQSPSSLSASVGDRVTITCRASQSIVTYLNWYQQKPGKAPKLVIYAVTSLHSGVPSRFSGSGSGTDFTLTISSLQPEDFATYYCQQSYELPLTFGGGTKVEIK"
8,0.175,"375_G10 (antibody, V domains shown) VH: EVQLLESGGGLVQPGGSLRLSCAASGFTFSSYGMNWVRQAPGKGLEWVSSINYNGGYKSYADSVKGRFTISRDNSKNTLYLQMNSLRAEDTAVYYCARSATWHDTHLDYWGQGTLVTVSS VL: DIQMTQSPSSLSASVGDRVTITCRASQSIVTYLNWYQQKPGKAPKLVIYAATSRHSGVPSRFSGSGSGTDFTLTISSLQPEDFATYYCQQSYDTPLTFGGGTKVEIK"
9,0.253,"367_F10 (antibody, V domains shown) VH: EVQLLESGGGLVQPGGSLRLSCAASGFTFDSYGMNWVRQAPGKGLEWVSGINYNSGYTSYADSVKGRFTISRDNSKNTLYLQMNSLRAEDTAVYYCARAATWHDTHLDYWGQGTLVTVSS VL: DIQMTQSPSSLSASVGDRVTITCRASQSILTYLNWYQQKPGKAPKLLIYAATSRASGVPSRFSGSGSGTDFTLTISSLQPEDFATYYCQQSYDTPLTFGGGTKVEIK"
10,0.309,"370_D07 (antibody, V domains shown) VH: EVQLLESGGGLVQPGGSLRLSCAASGFTFSSYGMNWVRQAPGKGLEWVSNINYNSGYTGYADSVKGRFTISRDNSKNTLYLQMNSLRAEDTAVYYCARSATWHDTHLDYWGQGTLVTVSS VL: DIQMTQSPSSLSASVGDRVTITCRASQSILSYVNWYQQKPGKAPKLVIYAATSLASGVPSRFSGSGSGTDFTLTISSLQPEDFATYYCQQSYESPLTFGGGTKVEIK"
11,0.225,"374_C07 (antibody, V domains shown) VH: EVQLLESGGGLVQPGGSLRLSCAASGFTFDSYSMNWVRQAPGKGLEWVSNINYNGGYTSYADSVKGRFTISRDNSKNTLYLQMNSLRAEDTAVYYCARSATWHDTHLDYWGQGTLVTVSS VL: DIQMTQSPSSLSASVGDRVTITCRASQSIISYLNWYQQKPGKAPKLLIYAATSRASGVPSRFSGSGSGTDFTLTISSLQPEDFATYYCQQSDELPLTFGGGTKVEIK"

# — patent publication US20210380703A1
